In experiment [1] the target is SARS-CoV-2 spike receptor binding domain (native RBD) (SARS-CoV-2, UniProt P0DTC2 330-532).
For experiment [2], the target named is T1, SARS-CoV-2 receptor binding domain (RBD), native (SARS-CoV-2, UniProt P0DTC2 330-532).
T1 construct: range 330-532
Nature of the experiment: BLI, Fab and RBD. (In general: In BLI a coated tip is dipped into the sample, and binding shifts an interference pattern.)

Experiment [3] addresses T2, SARS-CoV-2 spike receptor binding domain, native (SARS-CoV-2, UniProt P0DTC2 330-532).
T2 construct: range 330-532
Put plainly: BLI, RBD on AR2G biosensor, mAb as analyte.

The values below come from US20240043507A1 (RQ BIOTECHNOLOGY, published 2024).

B1: antibody 58 (antibody, V domains shown)
VH: QVQLVESGGGLVQPGRSLRLSCAASGFTFDDYAMHWVRQPPGKGLEWVSGVSWNSGTIGYADSVKGRFIISRDNAKNSLYLQMNSLKAEDTALYYCAREVGGTFGVLISREGGLDYWGQGTLVTVSS
VL: SYELTQPPSVSVAPGQTARITCGGNTIGSKSVHWYQQRPGQAPVLVVYDDSDRPSGIPERFSGSNSGNTATLTISRVEAGDEADYYCQVWDSSSDRVVFGGGTKLTVL
Consider B1, for which the Kd (usually the concentration at which binding is half-saturated) in experiment [1] came out at 0.3 nM.

B2: Fab 58 (Fab, V domains shown)
VH: QVQLVESGGGLVQPGRSLRLSCAASGFTFDDYAMHWVRQPPGKGLEWVSGVSWNSGTIGYADSVKGRFIISRDNAKNSLYLQMNSLKAEDTALYYCAREVGGTFGVLISREGGLDYWGQGTLVTVSS
VL: SYELTQPPSVSVAPGQTARITCGGNTIGSKSVHWYQQRPGQAPVLVVYDDSDRPSGIPERFSGSNSGNTATLTISRVEAGDEADYYCQVWDSSSDRVVFGGGTKLTVL
Molecule B2 displayed a dissociation constant (Kd) in experiment [2] of 3.4 nM.

B3: Fab 175 (Fab, V domains shown)
VH: EVQLVESGGGLIQPGGSLRLSCAASGLTVSRNYMSWVRQAPGKGLEWVSLIYSGGSTYYADSVKGRFTISRDNSKNTLYLQMNSLRAEDTAVYYCARDLRGEVWGQGTMVTVSS
VL: not shown
On to B3, for which the Kd in experiment [2] amounted to 2.4 nM.

B4: antibody 175 (antibody, V domains shown)
VH: EVQLVESGGGLIQPGGSLRLSCAASGLTVSRNYMSWVRQAPGKGLEWVSLIYSGGSTYYADSVKGRFTISRDNSKNTLYLQMNSLRAEDTAVYYCARDLRGEVWGQGTMVTVSS
VL: not shown
With B4, binding in experiment [1] was put at a Kd of 0.97 nM.

B5: Fab 278 (Fab, V domains shown)
VH: QVQLVQSGAEVKKPGASVKVSCKASGYIFIRYGISWVRQAPGQGLEWMGWISANNGYTNYAQKLQGRVTMTTDTSTSTAYMELRSLRSDDTAVYYCARDGGILTGYLDYFDHWGQGTLVTVSS
VL: DIQMTQSPSSLSASVGDRLTITCRASQSIASYLNWYQQKPGKAPKLLIYAASSLQSGVPSRFSGSGSGTDFTLTISSLQPEDFATYHCQQSYSTLGITFGPGTKVDIK
As to B5, the Kd in experiment [2] was found to be 3 nM.

B6: Fab 165 (Fab, V domains shown)
VH: QVQLVQSGPEVKKPGTSVKVSCKASGFTFTSSAVQWVRQARGQRLEWIGWIVVGSGNTNYAQKFQESVTITRDMSTSTAYMELSSLRSEDTAVYYCAAPHCIGGSCHDAFDIWGQGTMVTVSS
VL: DIVMTQSPGTLSLSPGERATLSCRASQSVRSSYLAWYQQKPGQAPRLLIYGASRRGTGIPDRFSGSGSGTDFTLTISRLEPEDFAVYYCQQYGSSPWTFGQGTKVEIK
Molecule B6 came in with an equilibrium dissociation constant (Kd) in experiment [2] of 4.8 nM.

B7: antibody 253H165L (antibody, V domains shown)
VH: not shown
VL: DIVMTQSPGTLSLSPGERATLSCRASQSVRSSYLAWYQQKPGQAPRLLIYGASRRGTGIPDRFSGSGSGTDFTLTISRLEPEDFAVYYCQQYGSSPWTFGQGTKVEIK
On to B7, for which, in experiment [1], the equilibrium dissociation constant (Kd) amounted to 0.73 nM.

B8: antibody 318 (antibody, V domains shown)
VH: QVQLVQSGPEVKKPGTSVKVSCKASGFTLTSSAMQWVRQARGQRLEWIGWIVVGSGNTNYAQKFQERVTITRDMSTSTAYMELSSLRSEDTAVYYCAAGRGYNSDFDYWGQGTLVTVSS
VL: AIRMTQSPGTLSLSPGERATLSCRASQSVSSSYLAWYQQRPGQAPRLLIYGTSSRATGIPDRFSGSGSGTDFTLTISRLEPEDFAVYYCQQYGYSVYTFGQGTKVDIK
In experiment [1], B8 came in with a Kd of 2.23 nM.

B9: Fab 318 (Fab, V domains shown)
VH: QVQLVQSGPEVKKPGTSVKVSCKASGFTLTSSAMQWVRQARGQRLEWIGWIVVGSGNTNYAQKFQERVTITRDMSTSTAYMELSSLRSEDTAVYYCAAGRGYNSDFDYWGQGTLVTVSS
VL: AIRMTQSPGTLSLSPGERATLSCRASQSVSSSYLAWYQQRPGQAPRLLIYGTSSRATGIPDRFSGSGSGTDFTLTISRLEPEDFAVYYCQQYGYSVYTFGQGTKVDIK
B9: the Kd in experiment [2] was 7.6 nM.

B10: antibody 222 (antibody, V domains shown)
VH: EVQLVESGGGLIQPGGSLRLSCAASGLTVSSNYMSWVRQAPGKGLEWVSVIYSGGSTFYADSVKGRFTISRDNSKNTLYLQMNSLGAEDTAVYYCARGEGSPGNWFDPWGQGTLVTVSS
VL: DVVMTQSPGTLSLSPGERATLSCRASQSVPSSYLAWYQQKPGQAPRLLIYGASTRATGIPDRFSGSGSGTDFTLTISRLEPEDFAVYYCQHYDTSPRFGGGTKVDIK
In turn, B10 gave a Kd in experiment [1] of 0.29 nM.

B11: Fab 222 (Fab, V domains shown)
VH: EVQLVESGGGLIQPGGSLRLSCAASGLTVSSNYMSWVRQAPGKGLEWVSVIYSGGSTFYADSVKGRFTISRDNSKNTLYLQMNSLGAEDTAVYYCARGEGSPGNWFDPWGQGTLVTVSS
VL: DVVMTQSPGTLSLSPGERATLSCRASQSVPSSYLAWYQQKPGQAPRLLIYGASTRATGIPDRFSGSGSGTDFTLTISRLEPEDFAVYYCQHYDTSPRFGGGTKVDIK
notes: Fab
As to B11, binding in experiment [2] was put at a Kd of 3 nM.

B12: antibody 316 (antibody, V domains shown)
VH: not shown
VL: QAVLTQPPSASGSPGQSVTISCTGTSSDVGGYNYVSWYQQHPGKAPKLMIYEVSKRPSGVPDRFSGSKSGNTASLTVSGLQAEDEADYYCSSYAGSNHWVFGGGTKLTVL
The molecule B12 registered a Kd in experiment [1] of 1.5 nM.

B13: Fab 316 (Fab, V domains shown)
VH: not shown
VL: QAVLTQPPSASGSPGQSVTISCTGTSSDVGGYNYVSWYQQHPGKAPKLMIYEVSKRPSGVPDRFSGSKSGNTASLTVSGLQAEDEADYYCSSYAGSNHWVFGGGTKLTVL
notes: also called 316 Fab (glycosylated)
The molecule B13 yielded a dissociation constant (Kd) in experiment [2] of 2 nM.

B14: antibody 398 (antibody, V domains shown)
VH: QVQLVESGGGLVQPGGSLRLSCAASGFTVSSNYMTWVRQAPGKGLEWVSVIYSGGSTYYADSVKGRFTISRDNSKNTLYLQMNSLRADDTAVYYCARDSTADYDFWSGYYVGAFHIWGQGTMVTVSS
VL: QTVLTQPASVSGSPGQSITISCTGTSSDVGGYNYVSWYQQHPGKAPKLMIYEVTKRPSGVPDRFSGSKSGNTASLTVSGLQAEDEADYYCSSYAGSNNWVFGGGTKLTVL
B14: in experiment [1], the affinity, expressed as Kd, was 1.02 nM.

B15: antibody 40 (antibody, V domains shown)
VH: QVQLVESGGGLVQPGGSLRLSCAVSGFTVSRNYMSWVRQAPGKGLEWVSLIYSGGSTFYADSVKGRFTISRDNSKNTLYLQMNSLRAEDTAVYYCARDLFHRSGYHDYWGQGTLVTVSS
VL: not shown
B15 came in with an equilibrium dissociation constant (Kd) in experiment [1] of 0.55 nM.

B16: antibody 40 (antibody, V domains shown)
VH: QVQLVESGGGLVQPGGSLRLSCAVSGFTVSRNYMSWVRQAPGKGLEWVSLIYSGGSTFYADSVKGRFTISRDNSKNTLYLQMNSLRAEDTAVYYCARDLFHRSGYHDYWGQGTLVTVSS
VL: not shown
notes: also called mAb 40
In experiment [3], B16 showed a Kd of 1.33 nM.

B17: antibody 88 (antibody, V domains shown)
VH: QLQLQESGPGLVKPSQTLSLTCTVSGGSISSGSYNWTWIRQPAGKGLEWIGRIYNSGSTNYNPSLKSRVTISVDTSKNQLSLKVRSVTAADTAVYYCARHCSGGTCYPKYYYGMDVWGQGTTVTVSS
VL: QSALTQPPSVSEAPRQRVTISCSGSSSNIGNNAVNWYQQFPGKAPKLLIYYDDLLPSGVSDRFSGSKSGTSASLAISGVQSEDEADYYCAAWDDSLNVVVFGGGTKLTVL
In turn, B17 came in with a Kd in experiment [1] of 0.64 nM.

B18: Fab 158 (Fab, V domains shown)
VH: EVQLLESGGDLIQPGGSLRLSCAASGVTVSSNYMSWVRQAPGKGLEWVSIIYPGGSTFYADSVKGRFTISRDNSKNTLYLQMHSLRAEDTAVYYCARDLGSGDMDVWGKGTTVTVSS
VL: DIVMTQSPSFLSASVGDRVTITCRASQGISSYLAWYQQKPGKAPKLLIQAASTLQSGVPSRFSGSGSGTEFTLTISSLQPEDFATYYCQQLNSYRYTFGQGTKVEIK
As to B18, in experiment [2], binding was characterised by a dissociation constant (Kd) of 0.7 nM.

B19: antibody 158 (antibody, V domains shown)
VH: EVQLLESGGDLIQPGGSLRLSCAASGVTVSSNYMSWVRQAPGKGLEWVSIIYPGGSTFYADSVKGRFTISRDNSKNTLYLQMHSLRAEDTAVYYCARDLGSGDMDVWGKGTTVTVSS
VL: DIVMTQSPSFLSASVGDRVTITCRASQGISSYLAWYQQKPGKAPKLLIQAASTLQSGVPSRFSGSGSGTEFTLTISSLQPEDFATYYCQQLNSYRYTFGQGTKVEIK
The molecule B19 returned a Kd in experiment [1] of 0.53 nM.

B20: antibody 269 (antibody, V domains shown)
VH: QVQLVESGGGLIQPGGSLRLSCAASGLTVNRNYMSWIRQAPGKGLEWVSVIYSGGSTFYADSVKGRFTISRDNSKNTLSLQMNSLRAEDTAIYYCARDFYEGSFDIWGQGTMVTVSS
VL: AIQLTQSPSFLSASIGDRVTITCRASQGISSYLAWYQQKPGKAPKLLIYAASTLQSGVPSRFSGSGSGTEFTLTISSLQPEDFASYYCQQLNSYPAPVFGPGTKVDIK
Regarding B20, in experiment [1], binding was characterised by a dissociation constant (Kd) of 1.59 nM.

B21: Fab 269 (Fab, V domains shown)
VH: QVQLVESGGGLIQPGGSLRLSCAASGLTVNRNYMSWIRQAPGKGLEWVSVIYSGGSTFYADSVKGRFTISRDNSKNTLSLQMNSLRAEDTAIYYCARDFYEGSFDIWGQGTMVTVSS
VL: AIQLTQSPSFLSASIGDRVTITCRASQGISSYLAWYQQKPGKAPKLLIYAASTLQSGVPSRFSGSGSGTEFTLTISSLQPEDFASYYCQQLNSYPAPVFGPGTKVDIK
notes: also called 269 Fab; COVOX-269 Fab
In experiment [2], B21 came in with a Kd of 2.2 nM.

B22: antibody 281 (antibody, V domains shown)
VH: QVQLVESGGGLVQPGGSLRLSCAASGFPFSIYWMSWVRQAPGKGLEWVANIKQDGSEKYYVDSVKGRFTISRDNAKNSLYLHMNSLRGEDTAVYYCASRYYDFRPEAWFDYWGQGTLVTVSS
VL: not shown
B22 gave a dissociation constant Kd in experiment [1] of 3.2 nM.

B23: Fab 281 (Fab, V domains shown)
VH: QVQLVESGGGLVQPGGSLRLSCAASGFPFSIYWMSWVRQAPGKGLEWVANIKQDGSEKYYVDSVKGRFTISRDNAKNSLYLHMNSLRGEDTAVYYCASRYYDFRPEAWFDYWGQGTLVTVSS
VL: not shown
On to B23, for which binding in experiment [2] was characterised by a dissociation constant (Kd) of 1 nM.

B24: Fab 45 (Fab, V domains shown)
VH: QVQLVESGGGVVQPGRSLRLSCAASGFTFSTYAMHWVRQAPGKGLEWVAVLSYDGSNKYYADSVKGRFTISRDNSKNTLYLQMNSLRAEDTAVYYCAKGGSYAYYYYMDVWGKGTTVTVSS
VL: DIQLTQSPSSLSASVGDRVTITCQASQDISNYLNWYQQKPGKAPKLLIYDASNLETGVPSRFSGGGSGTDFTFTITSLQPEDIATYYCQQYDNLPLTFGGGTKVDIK
Consider B24, for which, in experiment [2], the dissociation constant (Kd) was 5.9 nM; the dissociation rate constant (koff) – broadly, the rate constant with which the complex falls apart – was 0.00046 s⁻¹; the kon (in general, the rate constant with which the complex forms) is 78000 M⁻¹ s⁻¹.
